In patent US20230106715A1 (BIOSION, published 2023):

Columns and labels:
[1] = biological target: T1, human Siglec15-Fc protein (human); test: competitive ELISA: coated human Siglec15-Fc, blocked ligand biotin-labeled human LRRC4C-Fc
T1 construct: In house made; also called recombinant human Siglec15 protein with human IgG1 Fc at the C-terminus
Experimental: Serially diluted anti-Siglec15 antibodies or the controls (starting at 66.67 nM with a 5-fold serial dilution) in PBST with 2.5% w/v non-fatty milk were added to the Siglec15-Fc bound plates, 100 μl per well, and incubated with the human Siglec15-Fc protein at 37° C. for 40 minutes. Plates were washed 4 times again using wash buffer, then added and incubated for 40 minutes at 37° C. with 100 μl/well 290 ng/ml biotin-labeled human LRRC4C-Fc protein (prepared in-house with SEQ ID NO: 23). Plates were washed again using wash buffer. Thereafter, the plates were added with 100 μl/well streptavidin conjugated HRP (1:5000 dilution in PBST buffer, Jackson Immunoresearch, Cat #016-030-084) and incubated for 40 minutes at 37° C. Plates were washed again using wash buffer. Finally, TMB was added and the reaction was stopped using 1M H₂SO₄, and the absorbance of each well was read on a microplate reader using dual wavelength mode with 450 nm for TMB and 630 nm as the reference wavelength, then the OD (450-630) values were plotted against antibody concentration. Data was analyzed using Graphpad Prism software and IC₅₀ values were reported.

[2] = biological target: T1, human Siglec15-Fc protein; test: competitive ELISA: biotin-labeled human Siglec15-Fc in solution, competitor coated benchmark; falling curve, table row is labelled EC50
Experimental: The abilities of the anti-Siglec15 antibodies of the disclosure to block benchmark-human Siglec15 binding were measured in a competitive ELISA assay. Briefly, the benchmark was coated on 96-well micro plates at 2 μg/mL in PBS, 100 μl per well, and incubated for 2 hours at 37° C. Then plates were washed once with wash buffer, and blocked with 5% w/v non-fatty milk in PBST overnight at 4° C. The next day, the anti-Siglec15 antibodies of the disclosure or controls were diluted with biotin labeled human Siglec15-Fc protein (prepared in-house with SEQ ID NO: 19, 37 ng/ml in PBST with 2.5% w/v non-fatty milk), starting at 80 nM with a 4-fold serial dilution, and incubated at room temperature for 40 minutes. After plate washing 4 times, the antibody/Siglec15-Fc mixtures were added to benchmark coated plates, 100 μl per well. After incubation at 37° C. for 40 minutes, plates were washed 4 times again using wash buffer. Then the plates were added and incubated with 100 μl/well streptavidin conjugated HRP for 40 minutes at 37° C. […] Finally, TMB was added and the reaction was stopped using 1M H₂SO₄, and the absorbance of each well was read on a microplate reader using dual wavelength mode with 450 nm for TMB and 630 nm as the reference wavelength, then the OD (450-630) values were plotted against antibody concentration. Data was analyzed using Graphpad Prism software and IC₅₀ values were reported.

[3] = biological target: T2, mouse Siglec15-his protein (mouse); test: indirect ELISA on coated mouse Siglec15-his
T2 construct: In house made
T2 chain: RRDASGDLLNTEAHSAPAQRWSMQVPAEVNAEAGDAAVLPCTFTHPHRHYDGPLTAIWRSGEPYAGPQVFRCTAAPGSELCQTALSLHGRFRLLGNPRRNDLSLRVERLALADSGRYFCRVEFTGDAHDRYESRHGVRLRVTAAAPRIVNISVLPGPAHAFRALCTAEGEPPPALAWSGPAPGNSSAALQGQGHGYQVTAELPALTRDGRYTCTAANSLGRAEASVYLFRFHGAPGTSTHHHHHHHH
Experimental: The anti-Siglec15 antibodies' cross-reactions to cynomolgus or mouse Siglec15 proteins were measured. Briefly, 96-well micro plates were coated with 100 μl of 2 μg/ml cynomolgus Siglec15-his protein (in house made with SEQ ID NO: 21), or 2 μg/ml mouse Siglec15-his protein (in house made with SEQ ID NO: 22) in carbonate/bicarbonate buffer (pH 9.6) for 2 hours at 37° C. ELISA plates were washed once with wash buffer (PBS+0.05% v/v Tween-20, PBST) and then blocked with 200 μl/well blocking buffer (5% w/v non-fatty milk in PBST) overnight at 4° C. Plates were washed 4 times and incubated with 100 μl serially diluted anti-Siglec15 antibodies of the disclosure or controls (starting at 66.7 nM, 5-fold serial dilution in PBST with 2.5% w/v non-fatty milk) for 40 minutes at 37° C. […] The reaction was stopped 4 minutes later at room temperature with 50 μl 1M H₂SO₄, and the absorbance of each well was read on a microplate reader using dual wavelength mode with 450 nm for TMB and 630 nm as the reference wavelength, then the OD (450-630) values were plotted against antibody concentration. Data was analyzed using Graphpad Prism software and EC₅₀ values were reported.

T1 sequence (chain, as listed by the source limits assumed): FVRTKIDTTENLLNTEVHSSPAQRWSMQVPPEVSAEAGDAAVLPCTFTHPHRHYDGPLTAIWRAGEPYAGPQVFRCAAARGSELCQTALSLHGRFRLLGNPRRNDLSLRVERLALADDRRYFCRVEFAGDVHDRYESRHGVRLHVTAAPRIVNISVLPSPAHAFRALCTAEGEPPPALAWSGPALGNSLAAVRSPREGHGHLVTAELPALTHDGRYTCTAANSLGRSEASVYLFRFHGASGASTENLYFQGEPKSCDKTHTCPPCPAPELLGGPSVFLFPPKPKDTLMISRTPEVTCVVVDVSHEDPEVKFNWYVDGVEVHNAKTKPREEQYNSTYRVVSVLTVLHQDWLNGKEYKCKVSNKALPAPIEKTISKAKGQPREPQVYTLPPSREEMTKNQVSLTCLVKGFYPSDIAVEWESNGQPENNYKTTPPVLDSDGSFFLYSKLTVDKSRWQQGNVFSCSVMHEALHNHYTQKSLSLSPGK

B1: anti-Siglec15 benchmark (ch5G12) (antibody, human IgG1, kappa, V domains shown)
VH: QVQLQQPGAELVKPGASVKMSCKASGYTFTSYWITWVIQRPGQGLEWIGDIYCGSDTMHYNEKFKNKATLTVDTSSSTAYMQLSSLTSEDSAVYYCARWWDYGSSYDYFDYWGQGTTLTVSS
VL: DIKMTQSPSSMYASLGERVTITCKASQDINSYLSWFQQKPGKSPKTLIYRANRLVDGVPSRFSGSGSGQDYSLTISSLEYEDMGIYYCLQYDEFPYTFGGGTKLEIKR
notes: ch5G12 (US 20190202912A1); also called BM; Siglec15-ch5G9
[1]
  IC50: 0.792 nM
[2]
  IC50: 0.486 nM
[3]
  EC50: 0.419 nM
